Measured values from US20250002543A1.

Assays:
[1] = target: human PCSK9 antibody containing human κ light chain subgroup 4 (Vκ4) (manufactured by R&D Systems); experiment: ELISA; antibody immobilised (10 ug/mL), binding protein at 50 ug/mL, Anti-6-His detection, blank-subtracted
[2] = target: human PDGF R alpha antibody containing human κ light chain subgroup 3 (Vκ3) (manufactured by R&D Systems); experiment: as above
[3] = target: human CTLA4 antibody containing human κ light chain subgroup 3 (Vκ3) (manufactured by R&D Systems); experiment: as above
[4] = target: Herceptin containing human κ light chain subgroup 1 (Vκ1) (manufactured by Chugai Pharmaceutical Co., Ltd.); experiment: as above
[5] = target: human antibody (gamma globulin preparation, manufactured by The Chemo-Sero-Therapeutic Research Institute) (human); experiment: ELISA; human gamma globulin immobilised, alkali-untreated protein extract, Anti-6-His detection
[6] = target: Herceptin containing human κ light chain subgroup 1 (Vκ1) (manufactured by Chugai Pharmaceutical Co., Ltd.); experiment: ELISA; Herceptin immobilised, binding protein at 2 ug/mL, dissociation with 0.05 M citric acid pH 2.4 for 2 min, absorbance ratio to wells without dissociation
[7] = target: human CTLA4 antibody containing human κ light chain subgroup 3 (Vκ3) (manufactured by R&D Systems); experiment: ELISA; antibody immobilised, binding protein added, Anti-6-His detection (method of Example 21(4))
[8] = target: Herceptin containing human κ light chain subgroup 1 (Vκ1) (manufactured by Chugai Pharmaceutical Co., Ltd.); experiment: as above
[9] = target: immunoglobulin immobilized on IgG Sepharose 6 Fast Flow (manufactured by Cytiva); experiment: IgG Sepharose 6 Fast Flow column; linear gradient 0.1 M citrate pH 6.5 to pH 2.2; pH at the peak of the eluted binding protein

Binder | Polyclonal antibody-binding activity (abs@450 nm) [1] | Polyclonal antibody-binding activity (abs@450 nm) [2] | Polyclonal antibody-binding activity (abs@450 nm) [3] | Polyclonal antibody-binding activity (abs@450 nm) [4] | Antibody-binding activity (absorbance) (absorbance (450 nm)) [5] | also measured
FpL_C3KX 3a (designed binder) ETPEEPAEEVTIRVNLIFADGQIQTAEFIGTFEEATARAYAYANLLAREYGGYTADLEDGGYTINIRFAGHHHHHH | 0.76 abs@450 nm | 0.12 abs@450 nm | 0.21 abs@450 nm | 0.87 abs@450 nm |  | 
FpL_C3 4f (designed binder) ETPEEPKEEVTIKVNLIFADGKIQTAEFKGTFEEATAKAYAYADLLAKEYGVYTADLEDGGYTINIKFAGHHHHHH |  |  |  |  | 0.9 | 
FpL_C3KX 6a (designed binder) ETPGEPAEEVTIRVNLIFADGRIQTAEFIGTFEEATARAYAYANLLARDYGDFTADLEDGGYTINIRFAGHHHHHH |  |  |  |  |  | Elution rate [%] [6]: 25%
FpL_C3KX 7c (designed binder) ETPGEPAEEVTIRVNLIFADGRIQTAEFIGTFEEATARAYAYANLLRRDYGDFTADLEDGGYTINIRFAGHHHHHH |  |  |  |  |  | Elution rate [%] [6]: 59%
FpL_C3KX 7b (designed binder) ETPGEPAEEVTIRVNLIFADGRIQTARFIGTFEEATARAYAYANLLARDYGDFTADLEDGGYTINIRFAGHHHHHH |  |  |  |  |  | Elution rate [%] [6]: 61%
FpL_C3KX 4h (designed binder) ETPEEPAEEVTIRVNLIFADGQIQTAEFIGTFEEATARAYAYANLLARDYGGYTADLEDGGYTINIRFAGHHHHHH | 0.62 abs@450 nm | 0.56 abs@450 nm | 0.63 abs@450 nm | 0.69 abs@450 nm |  | 
FpL_C3KX 5e (designed binder) ETPEEPAEEVTIRVNLIFADGRIQTAEFIGTFEEATARAYAYANLLARDYGGFTADLEDGGYTINIRFAGHHHHHH |  |  |  |  |  | Polyclonal antibody-binding activity (abs@450 nm) [7]: 0.06 abs@450 nm; Polyclonal antibody-binding activity (abs@450 nm) [8]: 0.96 abs@450 nm
FpL_C3KX_5e_P6S (designed binder) ETPEESAEEVTIRVNLIFADGRIQTAEFIGTFEEATARAYAYANLLARDYGGFTADLEDGGYTINIRFAGHHHHHH |  |  |  |  |  | Polyclonal antibody-binding activity (abs@450 nm) [7]: 0.78 abs@450 nm; Polyclonal antibody-binding activity (abs@450 nm) [8]: 0.98 abs@450 nm
FpL_C3 2a (designed binder) ETPEEPKEEVTIKVNLIFADGKIQTAEFKGTFEEATAKAYAYANLLAKEYGGYTADLEDGGNTINIKFAGHHHHHH |  |  |  |  | 0.72 | 
FpL_C4KR (designed binder) ETPEEPREEVTIRVNLIFADGRTQTAEFRGTFEEATAEAYRYADLLARVNGEYTADLEDGGYTINIRFAGHHHHHH | 0.55 abs@450 nm | 0.59 abs@450 nm | 0.66 abs@450 nm | 0.65 abs@450 nm |  | Elution pH [9]: 2.8 pH
FpL_C3KR (designed binder) ETPEEPREEVTIRVNLIFADGRIQTAEFRGTFEEATARAYAYANLLARENGEYTADLEDGGNTINIRFAGHHHHHH | 0.77 abs@450 nm | 0.21 abs@450 nm | 0.32 abs@450 nm | 0.92 abs@450 nm |  | Polyclonal antibody-binding activity (abs@450 nm) [7]: 0.07 abs@450 nm; Polyclonal antibody-binding activity (abs@450 nm) [8]: 0.86 abs@450 nm
FpL_C3 5c (designed binder) ETPEEPKEEVTIKVNLIFADGKIQTAEFKGTFEEATAKAYAYAGLLAKVYGVYTADLEDGGYTINIKFAGHHHHHH |  |  |  |  | 0.74 | 
FpL_C3 5d (designed binder) ETPEEPKEEVTIKVNLIFADGKIQTAEFKGTFEEATAKAYAYAGLLAKVSGVYTADLEDGGYTINIKFAGHHHHHH |  |  |  |  | 0.46 | 
